Data published in patent publication USRE39192E1, “Supplemented and unsupplemented tissue sealants, methods of their production and use” (American National Red Cross, priority 1990, dated 2006).

Key:
[1] = target: T1, thrombin (Homo sapiens, UniProt P00734); experiment: Stability of HBGF-1β to thrombin in the presence of heparin (Western blot); type: biochemical; settings: heparin as low as 5U/ml; thrombin 250 U/ml; 37° C.
T1 construct: converts prothrombin into thrombin
Experimental: FIGS. 1A-1F show Western blots of gels on which samples containing HBGF-1β had been incubated with 250 U/ml thrombin in the presence of increasing concentrations of heparin. Solutions containing HBGF-1β (10 μg/ml), thrombin ([…]), and increasing concentrations of heparin (0, 0.5, 5, 10, 20, and 50 units/ml) were incubated at 37° C. for 72 hours. Aliquots were periodically removed from each of the incubating mixtures and were loaded onto 8% SDS polyacrylamide gels that were prepared and run as described by Laemmli (Nature 227:680 (1970)). The gel was then electroblotted onto nitrocellulose and the band corresponding to HBGF-1β was identified using an affinity-purified polyclonal rabbit antiserum to HBGF-1β.
The concentrations of heparin in the incubating mixtures were: panel A) 0 units/ml; panel B) 0.5 U/ml; Panel C) 5 U/ml; panel D) 10 U/ml; panel E) 20 U/ml; and panel F) 50 U/ml. […]
Similarly, the ability of a selected inhibitor to protect a growth factor from degradation by TS components may be assessed by any method known to those of skill in the art. […]
It was necessary to add an ingredient to the FG that would inhibit or prevent the digestion of HBGF-1β by thrombin (Lobb, Biochem. 27:2572-2578 (1988)), which is a component of FG. […] The stability of HBGF-1 in the presence of increasing concentrations of heparin was assessed. […]

[2] = tested on: NIH 3T3 cells; experiment: 3H-thymidine incorporation assay with NIH 3T3 cells; type: cell-based; settings: after incubation with 250 U/ml thrombin and 5 U/ml heparin for 0, 24 or 72 hours
Experimental: FIG. 2. Graph ShowingReissue the incorporation of ^3H-thymidine as a function of relative HBGF-1β concentration. Samples of the HBGF-1β were incubated, as described in FIG. 1 and Example 2, in the presence of 250 U/ml thrombin and 5 U/ml heparin for 0, 24 or 72 hours. Dilutions of these samples were then added to NHI 3T3 cells, which were plated as described in Example 3. CPM is plotted v. HBGF-1 concentration.
The biological activity of HBGF-1 in the incubation mixture that contained 5 U/ml of heparin, and was described in Example 2, was measuring using an ^3H-thymidine incorporation assay with NIH 3T3 cells.
NIH 3T3 cells were introduced into 96 well plates and were incubated at 37° C. under starvation conditions in Dulbecco's Modified Medium (DMEM; GIBCO, Grand Island, N.Y.) with 0.5% […] bovine serum (BCS; GIBCO, Grand Island, N.Y.) until the cells reached 30 to 50% confluence. Two days later, varying dilutions of HBGF-1 from the samples prepared in Example 2 were added to each well without changing the medium. Diluent (incubation buffer) was added in place of growth factor for the negative controls and DMEM with 10% BCS, which contains growth factors needed for growth, was added in place of the HBGF-1 sample for the positive controls. […]

- protection of HBGF-1β from digestion by thrombin [1]: protected from digestion by thrombin
Substance: HBGF-1: heparin binding growth factor-1, also known as ECGF and FGF-1; recombinant HBGF-1β expressed in E. coli
- biological activity (3H-thymidine incorporation) [2]: retained its biological activity
